The target of this data set is HSFA2 (Arabidopsis thaliana, UniProt O80982 1-345). Briefly: competition EMSA; unlabeled HRE fragment, 200-fold excess, competes with labeled LTR; 10 mM Tris pH 7.5, 1 mM EDTA, 0.1 M KCl, 0.1 mM DTT, 5% glycerol, 0.01 mg/ml BSA; RT 30 min; 5% native PAGE, 0.5x TBE. Conditions: protein: recombinant; tags: C-terminal 6xHis (pET-24b, NdeI/XhoI); chain copies: 3; blunt. (In EMSA bound probe runs differently from free probe, usually more slowly.)
Chain of HSFA2 (O80982 whole entry, the tested form may be a part): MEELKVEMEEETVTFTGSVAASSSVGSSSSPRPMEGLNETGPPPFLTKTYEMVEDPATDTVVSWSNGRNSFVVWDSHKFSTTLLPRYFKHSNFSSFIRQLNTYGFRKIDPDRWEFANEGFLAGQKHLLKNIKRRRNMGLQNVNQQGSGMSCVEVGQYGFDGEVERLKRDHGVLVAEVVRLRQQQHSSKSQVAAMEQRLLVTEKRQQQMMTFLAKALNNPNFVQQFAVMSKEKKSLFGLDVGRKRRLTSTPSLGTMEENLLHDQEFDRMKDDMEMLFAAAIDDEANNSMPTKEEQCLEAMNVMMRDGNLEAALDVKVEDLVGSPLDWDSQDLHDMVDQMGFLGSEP

B1: ONSEN LTR complete HRE, 51 bp (dsDNA)
DNA 1: CCACCTCCTTAAAAGATTCTAGAAATTTTCTAGAATCATCTTCCACCTCCT
DNA 2: AGGAGGTGGAAGATGATTCTAGAAAATTTCTAGAATCTTTTAAGGAGGTGG
As for B1, the binding result is “binds”.
